Reference: US20190077864A1 (ONCOMED PHARMACEUTICALS, published 2019)
Substitutions are numbered along the chain they refer to.

Assays:
human TIGIT = target: T1, human TIGIT (human, UniProt Q495A1 22-141, limits assumed); experiment: Biacore, preliminary; format not stated
T1 construct: also called hTIGIT
T1 sequence: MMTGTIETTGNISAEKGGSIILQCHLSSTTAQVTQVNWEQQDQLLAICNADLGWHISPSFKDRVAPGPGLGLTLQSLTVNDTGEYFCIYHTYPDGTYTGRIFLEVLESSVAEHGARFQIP

[1] = target: T2, hTIGIT variant 2 (T51M)-CD4TM-GFP on HEK-293T cells (human, UniProt Q495A1 22-141); experiment: FACS, 1 µg/ml antibody on transfected HEK-293T cells
T2 construct: not shown: transmembrane domain of CD4 (CD4TM); GFP tag
T2 chain: T1 sequence with T30M
Protocol: (§1) To identify the binding epitope of antibody 313M32, an analysis was performed with a series of variants of human TIGIT with specific amino acid substitutions. The variants were based upon the differences between human TIGIT and cynomolgus TIGIT amino acid sequences, SEQ ID NO:4 and SEQ ID NO:77, respectively. The amino acid sequence of rhesus monkey TIGIT (SEQ ID NO:78) is identical to cynomolgus TIGIT (FIG. 21). The amino acid variants introduce amino acid residues present in cynomolgus monkey TIGIT into corresponding positions in human TIGIT. The hTIGIT variants generated have substitutions at (1) E36K and […]; (2) T51M, (3) Q62H and Q64H, (4) D72E, (5) S78Y and S80A, (6) V100M, (7) I109T and T119R, and (8) G135S. Each variant hTIGIT was generated using the hTIGIT (aa 22-141)-CD4TM-GFP construct described in Example 15.
(§2) The TIGIT variants were evaluated by FACS with anti-hTIGIT antibodies. […] After 16 hours, transfected cells were suspended in ice cold HBSS containing 2% FBS and incubated on ice with 1 μg/ml anti-hTIGIT antibodies 313R12, 313M32, or 313M34 for 30 minutes. 313M34 is an anti-hTIGIT antibody that was generated based upon the amino acid sequences of the 10A7 antibody described in U.S. Publication 2009/0258013. The 10A7 antibody is an anti-mouse TIGIT antibody that binds both mouse TIGIT and human TIGIT. A second incubation with 50 μl PE-conjugated anti-Fc secondary antibody was performed to detect cells bound by the antibodies. The cells were analyzed on a FACSCanto instrument (BD Biosciences) and the data was processed using FlowJo software.

[2] = target: T3, hTIGIT variant 4 (D72E)-CD4TM-GFP on HEK-293T cells (human, UniProt Q495A1 22-141); experiment: as above
T3 construct: not shown: transmembrane domain of CD4 (CD4TM); GFP tag
T3 chain: T1 sequence with D51E
Protocol: as §1, §2

[3] = target: T4, hTIGIT variant 5 (S78Y and S80A)-CD4TM-GFP on HEK-293T cells (human, UniProt Q495A1 22-141); experiment: as above
T4 construct: not shown: transmembrane domain of CD4 (CD4TM); GFP tag
T4 chain: T1 sequence with S57Y, S59A
Protocol: as §1, §2

[4] = target: T5, hTIGIT variant 6 (V100M)-CD4TM-GFP on HEK-293T cells (human, UniProt Q495A1 22-141); experiment: as above
T5 construct: not shown: transmembrane domain of CD4 (CD4TM); GFP tag
T5 chain: T1 sequence with V79M
Protocol: as §1, §2

[5] = target: T6, hTIGIT variant 8 (G135S)-CD4TM-GFP on HEK-293T cells (human, UniProt Q495A1 22-141); experiment: as above
T6 construct: not shown: transmembrane domain of CD4 (CD4TM); GFP tag
T6 chain: T1 sequence with G114S
Protocol: as §1, §2

[6] = target: T7, hTIGIT variant 1 (E36K and I41V)-CD4TM-GFP on HEK-293T cells (human, UniProt Q495A1 22-141); experiment: as above
T7 construct: read as I41V; not shown: transmembrane domain of CD4 (CD4TM); GFP tag
T7 chain: T1 sequence with E15K, I20V
Protocol: as §1, §2

[7] = target: T8, hTIGIT variant 3 (Q62H and Q64H)-CD4TM-GFP on HEK-293T cells (human, UniProt Q495A1 22-141); experiment: FACS on transfected HEK-293T cells
T8 construct: not shown: transmembrane domain of CD4 (CD4TM); GFP tag
T8 chain: T1 sequence with Q41H, Q43H
Protocol: as §1
as §2, with “The 10A7 antibody is an anti-mouse TIGIT antibody that binds both mouse TIGIT and human TIGIT. A second incubation with 50 μl PE-conjugated anti-Fc secondary antibody was performed to detect cells bound by the antibodies.” left out

[8] = target: T9, hTIGIT variant 7 (I109T and T119R)-CD4TM-GFP on HEK-293T cells (human, UniProt Q495A1 22-141); experiment: FACS on transfected HEK-293T cells
T9 construct: not shown: transmembrane domain of CD4 (CD4TM); GFP tag
T9 chain: T1 sequence with I88T, T98R
Protocol: as §1
as §2, with “The 10A7 antibody is an anti-mouse TIGIT antibody that binds both mouse TIGIT and human TIGIT. A second incubation with 50 μl PE-conjugated anti-Fc secondary antibody was performed to detect cells bound by the antibodies.” left out

[9] = target: T10, hTIGIT-CD4TM-GFP on HEK-293T cells (human, UniProt Q495A1 22-141); experiment: inferred from two blocking studies of hPVR-rbFc binding to hTIGIT cells, flow cytometry
T10 construct: Cell surface fusion protein, transiently expressed; also called human TIGIT ECD-CD4TM-GFP; FLAG-hTIGIT-CD4TM-GFP; not shown: transmembrane domain of CD4 (CD4TM); C-terminal GFP protein tag
T10 sequence: T1 sequence
Protocol: After 16 hours, transfected cells were suspended in ice cold HBSS containing 2% FBS and heparin and incubated on ice with 0.5 μg/ml hPVR-rbFc fusion protein in the presence of anti-TIGIT antibodies 313R19, 313M26, or 313M32 for 60 minutes. Antibody 313R19 is a humanized version of a rabbit anti-TIGIT antibody. 313R19 binds mouse and human TIGIT. The antibodies were tested at concentrations of 10, 2, and 0.4 ug/ml. Cells were incubated without antibody or without hPVR-rbFc as controls. A second incubation with 100 μl PE-conjugated anti-rabbit Fc secondary antibody was performed to detect cells bound by the hPVR-rbFc fusion protein. The cells were analyzed on a FACSCanto instrument (BD Biosciences) and the data was processed using FlowJo software.
All three anti-TIGIT antibodies blocked binding of hPVR-rbFc to hTIGIT at the highest concentration of 10 μg/ml.

[10] = target: T11, mouse TIGIT ECD-CD4TM-GFP on HEK-293T cells (mouse, UniProt P86176 29-148); experiment: flow cytometry, 1 µg/ml antibody on HEK-293T cells transiently transfected with mTIGIT-CD4TM-GFP, PE-conjugated anti-Fc secondary
T11 construct: The legend names the construct as mouse TIGIT ECD; also called mouse TIGIT-CD4TM-GFP; mTIGIT-CD4TM-GFP; not shown: transmembrane domain of CD4 (CD4TM); GFP (green fluorescent protein)
T11 sequence: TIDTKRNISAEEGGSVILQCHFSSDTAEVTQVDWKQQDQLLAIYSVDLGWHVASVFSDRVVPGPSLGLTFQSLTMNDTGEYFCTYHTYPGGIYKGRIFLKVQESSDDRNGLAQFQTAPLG
Protocol: as §2

- Kd (human TIGIT): 0.4 nM
- binding result [1]: binds
- binding result [2]: binds
- binding result [3]: binds
- binding result [4]: binds
- binding result [5]: binds
- binding result [6]: binds
- binding result [7]: no binding (tested: 1 µg/ml)
- binding result [8]: no binding (tested: 1 µg/ml)
- fold higher affinity than antibody 313R19 [9]: ~5 fold
- binding result [10]: no binding (tested: 1 µg/ml)
B1: anti-TIGIT antibody 313M32 (antibody, human IgG1, kappa, V domains shown)
VH: QVQLQESGPGLVKPSETLSLTCAVSGYSITSDYAWNWIRQPPGKGLEWIGYISYSGSTSYNPSLRSRVTISRDTSKNQFFLKLSSVTAADTAVYYCARRQVGLGFAYWGQGTLVTVSS
VL: DIQMTQSPSSLSASVGDRVTITCKASQDVSTAVAWYQQKPGKAPKLLIYSASYRYTGVPSRFSGSGSGTDFTFTISSLQPEDIATYYCQQHYSTPWTFGQGTKVEIKR
notes: Humanized version of 313M26, human IgG1
